Like-named read-outs stand apart in the source and are kept apart here. Bridges are numbered along the chain shown (N, C = ends). Where no end group is shown, it is not given here.
Legend:
[1] = biological target: T1, sEGFR-MMB (dimeric soluble EGFR ectodomain mimetibody) (human); assay: phage ELISA on coated sEGFR-MMB, chemiluminescence; background typically <200 units
T1 construct: also called sEGFR mimetibody; sEGFR-Fc

[2] = biological target: T1, sEGFR-MMB (dimeric soluble EGFR …); assay: as above; remark: listed apart in the source
[3] = biological target: T1, sEGFR-MMB (dimeric soluble EGFR …); assay: phage ELISA on coated sEGFR-MMB; second bar with EGF 10 ug/ml as competitor
b-sEGFR-strep = biological target: T2, b-sEGFR-strep (human, UniProt P00533, biotinylated, sites not given); assay: phage ELISA, biotinylated receptor captured on streptavidin
T2 construct: soluble ectodomain, monomeric, strep II tag; captured on streptavidin-coated wells; also called strepII-tagged sEGFR; strep II-tagged sEGFR purchased from Research Diagnostics

biotinylated sEGFR-MMB = biological target: T3, biotinylated sEGFR-MMB (human, biotinylated with sulfo-NHS-LC-biotin (sites not given)); assay: as above
T3 construct: Captured on streptavidin-coated wells in the ELISA; also called b-sEGFR-MMB; b-sEGFR MMB

biotinylated sEGFR-His6 = biological target: T4, biotinylated sEGFR-His6 (human, UniProt P00533 25-645, biotinylated (sites not given)); assay: as above
T4 construct: Captured on streptavidin-coated wells in the ELISA; also called b-sEGFR-His; b-sEGFR-His6

[4] = biological target: T1, sEGFR-MMB (dimeric soluble EGFR …); assay: phage ELISA, coated sEGFR-MMB
Streptavidin = biological target: T5, Streptavidin; assay: phage ELISA on streptavidin alone [C]
T5 construct: also called Streptavidin alone; SA

Control-MMB (CNTO 360) = biological target: T6, Control-MMB (CNTO 360) (Homo sapiens (Human), UniProt P0DOX5 111-449 = IgG part); assay: phage ELISA on coated Control-MMB [A]
T6 construct: Described as human IgG1 heavy chain dimer absent the variable and most of the CH1 domains; also called blank mimetibody scaffold protein

[5] = biological target: T7, Human extracellular EGFR-His6 (sEGFR-His6) (human, UniProt P00533 25-645); assay: phage ELISA, coated sEGFR-His6
T7 construct: Monomeric, expressed in HEK293E, glycosylated; also called sEGFR-6×His; monomeric sEGFR

T3 sequence (chain, as listed by the source limits assumed): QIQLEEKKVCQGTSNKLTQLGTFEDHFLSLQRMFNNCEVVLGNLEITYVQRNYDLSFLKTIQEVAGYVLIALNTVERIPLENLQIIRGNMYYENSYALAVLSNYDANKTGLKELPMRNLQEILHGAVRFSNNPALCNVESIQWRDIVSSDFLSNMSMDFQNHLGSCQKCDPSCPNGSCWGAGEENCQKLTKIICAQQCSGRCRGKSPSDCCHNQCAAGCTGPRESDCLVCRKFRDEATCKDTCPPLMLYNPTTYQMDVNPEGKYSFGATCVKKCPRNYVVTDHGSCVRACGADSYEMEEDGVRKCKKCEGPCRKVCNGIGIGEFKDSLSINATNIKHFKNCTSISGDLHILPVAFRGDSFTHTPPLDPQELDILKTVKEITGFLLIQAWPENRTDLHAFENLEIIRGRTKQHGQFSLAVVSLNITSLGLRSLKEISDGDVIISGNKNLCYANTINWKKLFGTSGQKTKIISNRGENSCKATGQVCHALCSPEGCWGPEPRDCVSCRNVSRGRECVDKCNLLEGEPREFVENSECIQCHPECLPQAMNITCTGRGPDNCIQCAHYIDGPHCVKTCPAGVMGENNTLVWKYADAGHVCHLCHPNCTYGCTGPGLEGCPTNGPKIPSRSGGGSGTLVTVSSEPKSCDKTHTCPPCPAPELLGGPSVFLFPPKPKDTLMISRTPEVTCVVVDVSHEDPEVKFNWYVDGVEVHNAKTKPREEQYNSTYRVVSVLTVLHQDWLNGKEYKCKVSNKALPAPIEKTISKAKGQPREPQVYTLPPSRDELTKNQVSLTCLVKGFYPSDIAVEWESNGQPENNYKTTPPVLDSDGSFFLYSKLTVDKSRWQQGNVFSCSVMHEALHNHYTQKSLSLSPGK
T1 sequence (chain, as listed by the source limits assumed): as above

B1: phage P177 (pIX S16) (peptide)
peptide: GGGDACTMVFLWCSLGGGSGGSGG
modifications: disulfide 6-13
notes: Tested as whole phage, pIX phagemid display; also called PP177; not shown: M13 coat protein pIX (display carrier at the C end)
Question: With B1 as the binder, how does the ELISA signal [1] read?
Answer: The ELISA signal was 8660 units.

B2: S20 library phage hit SEQ ID NO: 49 (peptide)
chain: GGGLLCATTSFRDWFVCFT
notes: Tested as whole phage, pIX phagemid display
Question: For B2, which ELISA signal [2] is on record?
Answer: Its ELISA signal is 4510 units.

B3: phage P143 (pIII CNL5) (peptide)
chain: AGVLCSNFYHPLCHSGG
notes: Tested as whole phage displaying the peptide on pIII; also called PP143; not shown: M13 phage coat protein pIII, mature (TVESC...)
Question: Does B3 bind [3]?
Answer: Result: binds

Question: Does B3 bind (b-sEGFR-strep)?
Answer: Result: binds

Question: Does B3 bind (biotinylated sEGFR-MMB)?
Answer: Result: binds

Question: Does B3 bind (biotinylated sEGFR-His6)?
Answer: Result: binds

B4: phage P146 (pIII CNL5) (peptide)
chain: AGTLCRSFFHPLCYAGG
notes: Tested as whole phage displaying the peptide on pIII; also called PP146; PHPEP146; not shown: M13 phage coat protein pIII, mature (TVESC...)
Question: Does B4 bind [3]?
Answer: Result: binds

Question: Does B4 bind (b-sEGFR-strep)?
Answer: Result: binds

Question: Does B4 bind (biotinylated sEGFR-MMB)?
Answer: Result: binds

Question: Does B4 bind (biotinylated sEGFR-His6)?
Answer: Result: binds

B5: S20 library phage hit SEQ ID NO: 46 (peptide)
chain: GGGYICTPSDIDSWYICYL
notes: as for B2
Question: With B5 as the binder, how does the ELISA signal [2] read?
Answer: Its ELISA signal is 6620 units.

B6: S20 library phage hit SEQ ID NO: 43 (peptide)
chain: GGGPTCDSATRRVLTICAD
notes: as for B2
Question: Which ELISA signal [2] does the source give for B6 here?
Answer: The ELISA signal was 5420 units.

B7: S20 library phage hit SEQ ID NO: 44 (peptide)
chain: GGGWMCFLEGYGASLMCQC
notes: as for B2
Question: With B7 as the binder, how does the ELISA signal [2] read?
Answer: The ELISA signal was 4800 units.

B8: phage P193 (pIII CNL1-11) (peptide)
chain: AGSYYWGYTVDIRRGG
notes: Tested as whole phage displaying the peptide on pIII; also called PHPEP193; not shown: M13 phage coat protein pIII, mature (TVESC...)
Question: Does B8 bind [4]?
Answer: Result: binds

B9: phage P145 (pIII CNL5) (peptide)
chain: AGVLCHRYYHPICYTGG
notes: Tested as whole phage displaying the peptide on pIII; also called PP145; PHPEP145; not shown: M13 phage coat protein pIII, mature (TVESC...)
Question: Does B9 bind [3]?
Answer: Result: binds

Question: Does B9 bind (b-sEGFR-strep)?
Answer: Result: binds

Question: Does B9 bind (biotinylated sEGFR-MMB)?
Answer: Result: binds

Question: Does B9 bind (biotinylated sEGFR-His6)?
Answer: Result: binds

B10: S20 library phage hit SEQ ID NO: 45 (peptide)
chain: GGGDSCCSFLTDGTVVCSL
notes: as for B2
Question: With B10 as the binder, how does the ELISA signal [2] read?
Answer: Its ELISA signal is 9540 units.

B11: phage P176 (pIX S20) (peptide)
chain: GGGKTCVSTTFDLWFVCFA
modifications: disulfide 6-17; also: displayed on whole phage via pIX
notes: Tested as whole phage, pIX phagemid display; also called PP176
Question: Does B11 bind (Streptavidin)?
Answer: Result: no binding

Question: Does B11 bind (Control-MMB (CNTO 360))?
Answer: Result: no binding

Question: And the ELISA signal [2]?
Answer: The ELISA signal was 37400 units.

B12: S20 library phage hit SEQ ID NO: 47 (peptide)
chain: GGGSVCVGTAFPGWMVCGP
notes: as for B2
Question: Which ELISA signal [2] does the source give for B12 here?
Answer: The ELISA signal was 4770 units.

B13: phage P194 (pIII CNL1-11) (peptide)
chain: AGSECFPLAPDWLSCILGG
notes: Tested as whole phage displaying the peptide on pIII; also called PHPEP194; not shown: M13 phage coat protein pIII, mature (TVESC...)
Question: Which results are given for B13?
Answer: binding result [5]: binds; binding result [4]: binds

B14: phage P178 (pIX S17) (peptide)
peptide: GGGRWCYFWWITICELGGGSGGSGG
modifications: disulfide 6-14
notes: Tested as whole phage, pIX phagemid display; also called PP178; not shown: M13 coat protein pIX (display carrier at the C end)
Question: For B14, which ELISA signal [1] is on record?
Answer: Its ELISA signal is 7910 units.
